Target: full-length murine Notch1 expressed on 32D myeloid progenitor cells (murine) (UniProt Q01705)
Assay: cell-based or functional assay

Chain of full-length murine Notch1 expressed on 32D myeloid progenitor cells (murine) (Q01705 19-2531): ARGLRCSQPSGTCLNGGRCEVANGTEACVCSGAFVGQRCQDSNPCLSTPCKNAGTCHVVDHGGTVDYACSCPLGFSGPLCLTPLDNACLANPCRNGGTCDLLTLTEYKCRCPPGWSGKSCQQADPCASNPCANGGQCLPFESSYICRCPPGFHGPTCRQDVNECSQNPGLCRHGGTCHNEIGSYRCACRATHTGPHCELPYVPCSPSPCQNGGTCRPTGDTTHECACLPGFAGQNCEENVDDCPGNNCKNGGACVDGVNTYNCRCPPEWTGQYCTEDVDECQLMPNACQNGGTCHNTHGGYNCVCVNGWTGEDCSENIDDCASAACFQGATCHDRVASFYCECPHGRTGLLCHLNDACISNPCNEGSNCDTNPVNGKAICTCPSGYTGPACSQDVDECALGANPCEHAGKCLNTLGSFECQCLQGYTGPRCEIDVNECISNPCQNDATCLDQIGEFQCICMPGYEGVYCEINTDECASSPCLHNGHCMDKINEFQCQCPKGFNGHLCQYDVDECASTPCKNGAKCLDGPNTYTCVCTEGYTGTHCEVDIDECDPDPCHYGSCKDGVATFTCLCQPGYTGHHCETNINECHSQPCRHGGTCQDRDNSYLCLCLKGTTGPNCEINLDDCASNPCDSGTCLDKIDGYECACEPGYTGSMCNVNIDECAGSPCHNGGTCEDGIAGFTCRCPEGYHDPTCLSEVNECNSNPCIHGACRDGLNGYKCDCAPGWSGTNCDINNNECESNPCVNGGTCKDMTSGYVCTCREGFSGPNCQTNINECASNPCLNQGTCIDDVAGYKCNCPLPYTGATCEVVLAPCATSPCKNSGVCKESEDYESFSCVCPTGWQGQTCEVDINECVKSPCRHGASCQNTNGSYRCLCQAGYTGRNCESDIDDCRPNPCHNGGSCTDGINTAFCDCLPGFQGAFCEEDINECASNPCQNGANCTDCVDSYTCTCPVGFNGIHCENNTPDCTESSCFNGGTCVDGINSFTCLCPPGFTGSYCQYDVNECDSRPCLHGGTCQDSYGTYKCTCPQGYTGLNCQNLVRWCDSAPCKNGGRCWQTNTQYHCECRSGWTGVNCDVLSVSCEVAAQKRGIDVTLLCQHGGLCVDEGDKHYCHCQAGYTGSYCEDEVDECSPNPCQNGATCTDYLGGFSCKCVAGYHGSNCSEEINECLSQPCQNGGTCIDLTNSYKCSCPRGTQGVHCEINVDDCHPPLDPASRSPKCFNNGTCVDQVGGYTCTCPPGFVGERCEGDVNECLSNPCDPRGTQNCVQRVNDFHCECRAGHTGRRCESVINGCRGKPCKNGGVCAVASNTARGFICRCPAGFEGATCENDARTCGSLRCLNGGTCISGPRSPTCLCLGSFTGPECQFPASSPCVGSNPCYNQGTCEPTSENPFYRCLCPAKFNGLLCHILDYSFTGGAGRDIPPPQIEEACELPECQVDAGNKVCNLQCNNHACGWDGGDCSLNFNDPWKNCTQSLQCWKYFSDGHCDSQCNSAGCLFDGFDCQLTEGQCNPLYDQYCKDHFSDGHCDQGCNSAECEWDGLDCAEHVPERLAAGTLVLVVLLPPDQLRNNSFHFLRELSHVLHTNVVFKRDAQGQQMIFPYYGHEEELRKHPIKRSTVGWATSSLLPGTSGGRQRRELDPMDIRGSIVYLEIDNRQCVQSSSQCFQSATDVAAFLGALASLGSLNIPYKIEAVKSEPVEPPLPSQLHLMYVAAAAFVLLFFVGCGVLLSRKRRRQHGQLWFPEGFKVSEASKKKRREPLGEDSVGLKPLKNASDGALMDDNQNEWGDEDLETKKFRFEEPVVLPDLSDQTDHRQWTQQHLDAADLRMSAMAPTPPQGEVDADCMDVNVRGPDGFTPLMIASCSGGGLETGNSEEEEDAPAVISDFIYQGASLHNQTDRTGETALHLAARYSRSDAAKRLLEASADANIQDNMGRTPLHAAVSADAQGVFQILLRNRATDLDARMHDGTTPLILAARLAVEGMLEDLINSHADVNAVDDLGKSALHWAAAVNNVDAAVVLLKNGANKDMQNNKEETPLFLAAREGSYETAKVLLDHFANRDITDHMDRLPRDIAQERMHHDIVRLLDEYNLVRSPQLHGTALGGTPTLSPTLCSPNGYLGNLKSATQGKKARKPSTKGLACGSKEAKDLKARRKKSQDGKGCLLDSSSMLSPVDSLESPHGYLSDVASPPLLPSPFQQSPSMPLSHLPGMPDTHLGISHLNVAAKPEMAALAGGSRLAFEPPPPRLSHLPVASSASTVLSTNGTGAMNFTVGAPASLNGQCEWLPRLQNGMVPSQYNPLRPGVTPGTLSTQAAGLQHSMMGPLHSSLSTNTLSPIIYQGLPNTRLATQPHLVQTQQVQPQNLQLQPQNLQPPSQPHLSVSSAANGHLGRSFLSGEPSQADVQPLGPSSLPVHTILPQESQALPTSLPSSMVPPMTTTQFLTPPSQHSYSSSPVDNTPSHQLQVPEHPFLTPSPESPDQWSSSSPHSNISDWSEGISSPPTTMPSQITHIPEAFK

human JAGGED1 (hJAGGED1) expressed on HS-27a human bone marrow stromal cells (from UniProt P78504 22-1218) (ligand)
Replating efficiency (FL Notch1 32D clones after 6 days on HS-27a with G-CSF): 190%
percent of full-length Notch1-expressing 32D cells mature by day 6 on HS-27a in G-CSF: 20%
percent of full-length Notch1-expressing 32D cells remaining undifferentiated by day 6 on HS-27a in G-CSF: 40%
